Experiments:
Experiment in all cases: epitope map assay, OD on overlapping 10-mer peptides
EISEVKMDAE = target: T1, EISEVKMDAE
T1 construct: APP flank + Aβ 1-3
T1 peptide: EISEVKMDAE

IIGLMVGGVV = target: T2, IIGLMVGGVV
T2 construct: Aβ 31-40
T2 peptide: IIGLMVGGVV

GYEVHHQKLV = target: T3, GYEVHHQKLV
T3 construct: Aβ 9-18
T3 peptide: GYEVHHQKLV

LVFFAEDVGS = target: T4, LVFFAEDVGS
T4 construct: Aβ 17-26
T4 peptide: LVFFAEDVGS

SGYEVHHQKL = target: T5, SGYEVHHQKL
T5 construct: Aβ 8-17
T5 peptide: SGYEVHHQKL

QKLVFFAEDV = target: T6, QKLVFFAEDV
T6 construct: Aβ 15-24
T6 peptide: QKLVFFAEDV

EFRHDSGYEV = target: T7, EFRHDSGYEV
T7 construct: Aβ 3-12
T7 peptide: EFRHDSGYEV

DSGYEVHHQK = target: T8, DSGYEVHHQK
T8 construct: Aβ 7-16
T8 peptide: DSGYEVHHQK

HQKLVFFAED = target: T9, HQKLVFFAED
T9 construct: Aβ 14-23
T9 peptide: HQKLVFFAED

DAEFRHDSGY = target: T10, DAEFRHDSGY
T10 construct: Aβ 1-10
T10 peptide: DAEFRHDSGY

KMDAEFRHDS = target: T11, KMDAEFRHDS
T11 construct: APP flank + Aβ 1-8
T11 peptide: KMDAEFRHDS

SEVKMDAEFR = target: T12, SEVKMDAEFR
T12 construct: APP flank + Aβ 1-5
T12 peptide: SEVKMDAEFR

VFFAEDVGSN = target: T13, VFFAEDVGSN
T13 construct: Aβ 18-27
T13 peptide: VFFAEDVGSN

FRHDSGYEVH = target: T14, FRHDSGYEVH
T14 construct: Aβ 4-13
T14 peptide: FRHDSGYEVH

MDAEFRHDSG = target: T15, MDAEFRHDSG
T15 construct: APP flank + Aβ 1-9
T15 peptide: MDAEFRHDSG

HDSGYEVHHQ = target: T16, HDSGYEVHHQ
T16 construct: Aβ 6-15
T16 peptide: HDSGYEVHHQ

KLVFFAEDVG = target: T17, KLVFFAEDVG
T17 construct: Aβ 16-25
T17 peptide: KLVFFAEDVG

HHQKLVFFAE = target: T18, HHQKLVFFAE
T18 construct: Aβ 13-22
T18 peptide: HHQKLVFFAE

AEDVGSNKGA = target: T19, AEDVGSNKGA
T19 construct: Aβ 21-30
T19 peptide: AEDVGSNKGA

VKMDAEFRHD = target: T20, VKMDAEFRHD
T20 construct: APP flank + Aβ 1-7
T20 peptide: VKMDAEFRHD

DVGSNKGAII = target: T21, DVGSNKGAII
T21 construct: Aβ 23-32
T21 peptide: DVGSNKGAII

ISEVKMDAEF = target: T22, ISEVKMDAEF
T22 construct: APP flank + Aβ 1-4
T22 peptide: ISEVKMDAEF

GAIIGLMVGG = target: T23, GAIIGLMVGG
T23 construct: Aβ 29-38
T23 peptide: GAIIGLMVGG

KGAIIGLMVG = target: T24, KGAIIGLMVG
T24 construct: Aβ 28-37
T24 peptide: KGAIIGLMVG

SNKGAIIGLM = target: T25, SNKGAIIGLM
T25 construct: Aβ 26-35
T25 peptide: SNKGAIIGLM

AEFRHDSGYE = target: T26, AEFRHDSGYE
T26 construct: Aβ 2-11
T26 peptide: AEFRHDSGYE

AIIGLMVGGV = target: T27, AIIGLMVGGV
T27 construct: Aβ 30-39
T27 peptide: AIIGLMVGGV

FFAEDVGSNK = target: T28, FFAEDVGSNK
T28 construct: Aβ 19-28
T28 peptide: FFAEDVGSNK

NKGAIIGLMV = target: T29, NKGAIIGLMV
T29 construct: Aβ 27-36
T29 peptide: NKGAIIGLMV

FAEDVGSNKG = target: T30, FAEDVGSNKG
T30 construct: Aβ 20-29
T30 peptide: FAEDVGSNKG

GSNKGAIIGL = target: T31, GSNKGAIIGL
T31 construct: Aβ 25-34
T31 peptide: GSNKGAIIGL

EVHHQKLVFF = target: T32, EVHHQKLVFF
T32 construct: Aβ 11-20
T32 peptide: EVHHQKLVFF

RHDSGYEVHH = target: T33, RHDSGYEVHH
T33 construct: Aβ 5-14
T33 peptide: RHDSGYEVHH

MVGGVVIATV = target: T34, MVGGVVIATV
T34 construct: Aβ 35-43 + one further APP residue
T34 peptide: MVGGVVIATV

EDVGSNKGAI = target: T35, EDVGSNKGAI
T35 construct: Aβ 22-31
T35 peptide: EDVGSNKGAI

GLMVGGVVIA = target: T36, GLMVGGVVIA
T36 construct: Aβ 33-42
T36 peptide: GLMVGGVVIA

IGLMVGGVVI = target: T37, IGLMVGGVVI
T37 construct: Aβ 32-41
T37 peptide: IGLMVGGVVI

EEISEVKMDA = target: T38, EEISEVKMDA
T38 construct: APP flank + Aβ 1-2
T38 peptide: EEISEVKMDA

LMVGGVVIAT = target: T39, LMVGGVVIAT
T39 construct: Aβ 34-43
T39 peptide: LMVGGVVIAT

VGSNKGAIIG = target: T40, VGSNKGAIIG
T40 construct: Aβ 24-33; this label stands at two neighbouring bars
T40 peptide: VGSNKGAIIG

EVKMDAEFRH = target: T41, EVKMDAEFRH
T41 construct: APP flank + Aβ 1-6
T41 peptide: EVKMDAEFRH

YEVHHQKLVF = target: T42, YEVHHQKLVF
T42 construct: Aβ 10-19
T42 peptide: YEVHHQKLVF

B1: mouse 15C11 antibody (antibody, V domains shown)
VH: EVKLVESGGGLVQPGGSLKLSCAASGFTFSRYSMSWVRQTPEKRLELVAKISNSGDNTYYPDTLKGRFTISRDNAQNTLYLQMSSLKSEDTAMYYCASGDYWGQGTTLTVSS
VL: DVVMTQTPLSLPVSLGDQASISCRSSQSLVHSDGNTYLHWYLQKPGQSPKLLIYKVSNRFSGVPDRFSGSGSGTDFTLKISRVEAEDLGVYFCSQSTHVWTFGGGTKLEIK
notes: Mouse monoclonal antibody from a hybridoma; The claims number the mature chains 1-111 and 1-112; also called mouse antibody 15C11
binding result (EISEVKMDAE): no binding | binding result (IIGLMVGGVV): no binding | binding result (GYEVHHQKLV): no binding | binding result (LVFFAEDVGS): binds | binding result (SGYEVHHQKL): no binding | binding result (QKLVFFAEDV): binds | binding result (EFRHDSGYEV): no binding | binding result (DSGYEVHHQK): no binding | binding result (HQKLVFFAED): binds | binding result (DAEFRHDSGY): no binding | binding result (KMDAEFRHDS): no binding | binding result (SEVKMDAEFR): no binding | binding result (VFFAEDVGSN): binds | binding result (FRHDSGYEVH): no binding | binding result (MDAEFRHDSG): no binding | binding result (HDSGYEVHHQ): no binding | binding result (KLVFFAEDVG): binds | binding result (HHQKLVFFAE): binds | binding result (AEDVGSNKGA): no binding | binding result (VKMDAEFRHD): no binding | binding result (DVGSNKGAII): no binding | binding result (ISEVKMDAEF): no binding | binding result (GAIIGLMVGG): no binding | binding result (KGAIIGLMVG): no binding | binding result (SNKGAIIGLM): no binding | binding result (AEFRHDSGYE): no binding | binding result (AIIGLMVGGV): no binding | binding result (FFAEDVGSNK): binds | binding result (NKGAIIGLMV): no binding | binding result (FAEDVGSNKG): no binding | binding result (GSNKGAIIGL): no binding | binding result (EVHHQKLVFF): no binding | binding result (RHDSGYEVHH): no binding | binding result (MVGGVVIATV): no binding | binding result (EDVGSNKGAI): no binding | binding result (GLMVGGVVIA): no binding | binding result (IGLMVGGVVI): no binding | binding result (EEISEVKMDA): no binding | binding result (LMVGGVVIAT): no binding | binding result (VGSNKGAIIG): no binding | binding result (EVKMDAEFRH): no binding | binding result (YEVHHQKLVF): no binding

— patent publication US20060165682A1 (Janssen / Centocor, published 2006)
